In FireProtDB (doi:10.1016/j.neuropharm.2010.07.001):
Several values for one entry are separate records, joined by “and”; a condition that tells them apart may be missing. Equal entries are not always repeated.

B1: Adenosine receptor A2a, P29274 (parent)
chain: MPIMGSSVYITVELAIAVLAILGNVLVCWAVWLNSNLQNVTNYFVVSLAAADIAVGVLAIPFAITISTGFCAACHGCLFIACFVLVLTQSSIFSLLAIAIDRYIAIRIPLRYNGLVTGTRAKGIIAICWVLSFAIGLTPMLGWNNCGQPKEGKNHSQGCGEGQVACLFEDVVPMNYMVYFNFFACVLVPLLLMLGVYLRIFLAARRQLKQMESQPLPGERARSTLQKEVHAAKSLAIIVGLFALCWLPLHIINCFTFFCPDCSHAPLWLMYLAIVLSHTNSVVNPFIYAYRIREFRQTFRKIIRSHVLRQQEPFKAAGTSARVLAAHGSDGEQVSLRLNGHPPGVWANGSAPHPERRPNGYALGLVSGGSAQESQGNTGLPDVELLSHELKGVCPEPPGLDDPLAQDGAGVS

Variants of: B1
Conditions: Homo sapiens; pH 7.5; Thermal; Tris-HCl 50 mM; NaCl 250 mM; structure 5NM2; whole UniProt chain shown

Variant	change of melting temperature, mutant - wild type (higher = more stable)
A54L T88A V239A K122A	12 °C and 10 °C and 9 °C
